Laboratory results as given in paper PMC8447495, “Dissecting Monomer-Dimer Equilibrium of an RNase P Protein Provides Insight Into the Synergistic Flexibility of 5’ Leader Pre-tRNA Recognition” (Frontiers in Molecular Biosciences, 2021).

Target: the molecule itself
Experiment: NMR (preliminary experiments); highly purified P protein at 25°C

B1: Thermotoga maritima RNase P protein (natural protein)
chain: TESFTRRERLRLRRDFLLIFKEGKSLQNEYFVVLFRKNGLDYSRLGIVVKRKFGKATRRNKLKRWVREIFRRNKGVIPKGFDIVVIPRKKLSEEFERVDFWTVREKLLNLLKRIEG
modifications: 15N, 13C-labeled
notes: RNase P protein component (rnpA gene) of Thermotoga maritima; numbering corresponds to UniProtKB Q9X1H4; Exists as monomer and dimer in equilibrium in solution; the preparation follows Zeng et al., 2018; also called T. maritima RNase P protein; source: E. coli BL21 Gold, M9 minimal media, purified (thrombin-treated lysate, denaturation-renaturation, 15S cation exchange); not shown: GST, …
- stoichiometry N: 2
